Assay results reported in the supplement of paper PMC10567573.

B1: BTBD10 (parent)
chain: FVYENAKEGARNIRTSERVTLIVD

Variants of: B1
Test: protein stability index of a GFP-peptide fusion (GPS, HEK-293T) (PSI 1-6); higher = more stable
Conditions: c terminus: a fixed tail appended
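Note: lentivirally expressed fusions sorted by FACS into six bins by GFP to DsRed ratio, PSI derived from sequencing read proportions per bin multiplied by bin number.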

For FVYENIKEGARNIRTSERVTLIVD [A6I], which protein stability index is on record?
The protein stability index was 1.79.

Which protein stability index does the source give for FVYENEKEGARNIRTSERVTLIVD [A6E] here?
The protein stability index was 2.8.

For FVYENRKEGARNIRTSERVTLIVD [A6R], which protein stability index is on record?
Its protein stability index is 1.84.

For FVYENKKEGARNIRTSERVTLIVD [A6K], which protein stability index is on record?
Its protein stability index is 2.13.

For FVYENGKEGARNIRTSERVTLIVD [A6G], which protein stability index is on record?
The protein stability index was 1.97.

For FVYENNKEGARNIRTSERVTLIVD [A6N], which protein stability index is on record?
Its protein stability index is 2.43.

Which protein stability index does the source give for FVYENTKEGARNIRTSERVTLIVD [A6T] here?
The protein stability index was 2.5.

For FVYENAKEGARNIRTSERVTLIND [V23N], which protein stability index is on record?
The protein stability index was 2.92.

With FVYENAKEGARNIRTSERVTLITD [V23T] as the variant, how does the protein stability index read?
The protein stability index was 2.16.

For FVYENAKEGARNIRTSERVTLIHD [V23H], which protein stability index is on record?
The protein stability index was 2.26.

Which protein stability index does the source give for FVYENAKEGARNIRTSERVTLIYD [V23Y] here?
The protein stability index was 1.7.

For FVYENAKEGARNIRTSERVTLIED [V23E], which protein stability index is on record?
The protein stability index was 2.89.

For FVYENAKEGARNIRTSERVTLVVD [I22V], which protein stability index is on record?
Its protein stability index is 2.92.

With FVYENAKEGARNIRTSERVTLLVD [I22L] as the variant, how does the protein stability index read?
The protein stability index was 1.72.

For FVYENAKEGARNIRTSERVTLAVD [I22A], which protein stability index is on record?
The protein stability index was 1.76.

For FVYENAKEGARNIRTSERVTLFVD [I22F], which protein stability index is on record?
Its protein stability index is 2.06.

For FVYENAKEGARNIRTSERVTLNVD [I22N], which protein stability index is on record?
Its protein stability index is 2.72.

Which protein stability index does the source give for EVYENAKEGARNIRTSERVTLIVD [F1E] here?
The protein stability index was 3.94.

Which protein stability index does the source give for GVYENAKEGARNIRTSERVTLIVD [F1G] here?
The protein stability index was 3.33.

For HVYENAKEGARNIRTSERVTLIVD [F1H], which protein stability index is on record?
Its protein stability index is 3.69.

Which protein stability index does the source give for IVYENAKEGARNIRTSERVTLIVD [F1I] here?
Its protein stability index is 2.71.

Which protein stability index does the source give for FVYENAKEGAFNIRTSERVTLIVD [R11F] here?
Its protein stability index is 2.38.

For FVYENAKEGAGNIRTSERVTLIVD [R11G], which protein stability index is on record?
The protein stability index was 2.31.

Which protein stability index does the source give for FVYENAKEGADNIRTSERVTLIVD [R11D] here?
Its protein stability index is 2.82.

For FVYENAKEGARNIRTSERLTLIVD [V19L], which protein stability index is on record?
Its protein stability index is 2.

For FVYENAKEGARNIRTSERPTLIVD [V19P], which protein stability index is on record?
The protein stability index was 2.73.

Which protein stability index does the source give for FVYENAKEGARNIRTSERKTLIVD [V19K] here?
Its protein stability index is 1.91.

Which protein stability index does the source give for FVYENAKEGARNIRTSERITLIVD [V19I] here?
The protein stability index was 1.61.

Which protein stability index does the source give for FVYENAKEGARQIRTSERVTLIVD [N12Q] here?
The protein stability index was 1.7.

For FVYENAKEGARRIRTSERVTLIVD [N12R], which protein stability index is on record?
The protein stability index was 1.96.

Which protein stability index does the source give for FVYENAKEGARIIRTSERVTLIVD [N12I] here?
The protein stability index was 1.84.

Which protein stability index does the source give for FVYENAKEGARDIRTSERVTLIVD [N12D] here?
Its protein stability index is 1.93.

With FVYENAKEGARLIRTSERVTLIVD [N12L] as the variant, how does the protein stability index read?
The protein stability index was 1.34.

Which protein stability index does the source give for FVYENAKEGARNIRTSYRVTLIVD [E17Y] here?
The protein stability index was 2.24.

With FVYENAKEGARNIRTSARVTLIVD [E17A] as the variant, how does the protein stability index read?
The protein stability index was 2.17.

Which protein stability index does the source give for FVYENAKEGARNIRTSRRVTLIVD [E17R] here?
The protein stability index was 1.46.

With FVYENAKEGARNIRTSSRVTLIVD [E17S] as the variant, how does the protein stability index read?
The protein stability index was 1.91.

With FVYENAKEGARNIRTSHRVTLIVD [E17H] as the variant, how does the protein stability index read?
The protein stability index was 1.8.

Which protein stability index does the source give for FVYENAKEGARNIRTSNRVTLIVD [E17N] here?
The protein stability index was 2.22.

Which protein stability index does the source give for FVYINAKEGARNIRTSERVTLIVD [E4I] here?
Its protein stability index is 2.35.

Which protein stability index does the source give for FVYLNAKEGARNIRTSERVTLIVD [E4L] here?
The protein stability index was 1.48.

With FVYVNAKEGARNIRTSERVTLIVD [E4V] as the variant, how does the protein stability index read?
The protein stability index was 2.83.

With FVYMNAKEGARNIRTSERVTLIVD [E4M] as the variant, how does the protein stability index read?
The protein stability index was 1.91.

Which protein stability index does the source give for FVYWNAKEGARNIRTSERVTLIVD [E4W] here?
The protein stability index was 1.83.

For FHYENAKEGARNIRTSERVTLIVD [V2H], which protein stability index is on record?
Its protein stability index is 3.07.

For FMYENAKEGARNIRTSERVTLIVD [V2M], which protein stability index is on record?
Its protein stability index is 2.6.

With FLYENAKEGARNIRTSERVTLIVD [V2L] as the variant, how does the protein stability index read?
The protein stability index was 2.41.

With FVYENAKEGARNIRCSERVTLIVD [T15C] as the variant, how does the protein stability index read?
Its protein stability index is 1.91.

With FVYENAKEGARNIRVSERVTLIVD [T15V] as the variant, how does the protein stability index read?
The protein stability index was 1.75.

For FVYENAKEGARNIRNSERVTLIVD [T15N], which protein stability index is on record?
The protein stability index was 2.11.

Which protein stability index does the source give for FVYENAKEGARNIRSSERVTLIVD [T15S] here?
The protein stability index was 2.38.

Which protein stability index does the source give for FVYENAKEGARNIRTSEVVTLIVD [R18V] here?
The protein stability index was 1.69.

Which protein stability index does the source give for FVYENAKEGARNIRTSEGVTLIVD [R18G] here?
Its protein stability index is 2.31.

With FVYENAKEGARNFRTSERVTLIVD [I13F] as the variant, how does the protein stability index read?
The protein stability index was 2.43.

With FVYENAKEGARNSRTSERVTLIVD [I13S] as the variant, how does the protein stability index read?
The protein stability index was 2.44.

For FVYENAKEGARNWRTSERVTLIVD [I13W], which protein stability index is on record?
The protein stability index was 1.68.

With FVYENAKEGARNLRTSERVTLIVD [I13L] as the variant, how does the protein stability index read?
Its protein stability index is 2.5.

Which protein stability index does the source give for FVYENAKEGARNIRTSERVWLIVD [T20W] here?
The protein stability index was 3.5.

Which protein stability index does the source give for FVYENAKEGARNIHTSERVTLIVD [R14H] here?
The protein stability index was 1.99.

For FVYENAKEGARNISTSERVTLIVD [R14S], which protein stability index is on record?
The protein stability index was 2.33.

For FVYEKAKEGARNIRTSERVTLIVD [N5K], which protein stability index is on record?
The protein stability index was 1.94.

For FVYELAKEGARNIRTSERVTLIVD [N5L], which protein stability index is on record?
The protein stability index was 1.34.

Which protein stability index does the source give for FVYESAKEGARNIRTSERVTLIVD [N5S] here?
Its protein stability index is 1.54.

Which protein stability index does the source give for FVYEDAKEGARNIRTSERVTLIVD [N5D] here?
Its protein stability index is 2.21.

With FVYEIAKEGARNIRTSERVTLIVD [N5I] as the variant, how does the protein stability index read?
Its protein stability index is 1.61.

For FVYERAKEGARNIRTSERVTLIVD [N5R], which protein stability index is on record?
Its protein stability index is 1.95.

Which protein stability index does the source give for FVYENAKEQARNIRTSERVTLIVD [G9Q] here?
The protein stability index was 2.09.

For FVYENAKESARNIRTSERVTLIVD [G9S], which protein stability index is on record?
The protein stability index was 1.8.

With FVYENAKEMARNIRTSERVTLIVD [G9M] as the variant, how does the protein stability index read?
Its protein stability index is 2.47.

Which protein stability index does the source give for FVYENAKEHARNIRTSERVTLIVD [G9H] here?
Its protein stability index is 1.72.

For FVYENAKECARNIRTSERVTLIVD [G9C], which protein stability index is on record?
The protein stability index was 1.83.

For FVYENAKEFARNIRTSERVTLIVD [G9F], which protein stability index is on record?
The protein stability index was 2.31.

For FVYENAKEIARNIRTSERVTLIVD [G9I], which protein stability index is on record?
The protein stability index was 1.74.

Which protein stability index does the source give for FVYENAKEGARNIRTSERVTVIVD [L21V] here?
The protein stability index was 1.64.

With FVYENAKEGARNIRTSERVTEIVD [L21E] as the variant, how does the protein stability index read?
Its protein stability index is 2.79.

For FVYENAKEGARNIRTSERVTDIVD [L21D], which protein stability index is on record?
Its protein stability index is 3.07.

For FVYENAKEGARNIRTSERVTKIVD [L21K], which protein stability index is on record?
The protein stability index was 2.6.

For FVYENAKEGARNIRTSERVTTIVD [L21T], which protein stability index is on record?
Its protein stability index is 2.07.

Which protein stability index does the source give for FVYENAKEGARNIRTSERVTCIVD [L21C] here?
The protein stability index was 2.32.

With FVYENAKMGARNIRTSERVTLIVD [E8M] as the variant, how does the protein stability index read?
Its protein stability index is 2.11.

With FVYENAKEGARNIRTSERVTLIVV [D24V] as the variant, how does the protein stability index read?
Its protein stability index is 2.35.

Which protein stability index does the source give for FVYENAKEGARNIRTSERVTLIVE [D24E] here?
Its protein stability index is 1.65.

With FVYENAMEGARNIRTSERVTLIVD [K7M] as the variant, how does the protein stability index read?
Its protein stability index is 1.82.

For FVYENAFEGARNIRTSERVTLIVD [K7F], which protein stability index is on record?
Its protein stability index is 1.85.

For FVYENAKEGARNIRTGERVTLIVD [S16G], which protein stability index is on record?
Its protein stability index is 2.41.

Which protein stability index does the source give for FVYENAKEGARNIRTDERVTLIVD [S16D] here?
Its protein stability index is 2.33.

Which protein stability index does the source give for FVYENAKEGARNIRTYERVTLIVD [S16Y] here?
The protein stability index was 2.44.

For FVYENAKEGARNIRTVERVTLIVD [S16V], which protein stability index is on record?
The protein stability index was 1.34.

With FVYENAKEGARNIRTCERVTLIVD [S16C] as the variant, how does the protein stability index read?
The protein stability index was 2.02.

For FVQENAKEGARNIRTSERVTLIVD [Y3Q], which protein stability index is on record?
The protein stability index was 2.62.

For FVTENAKEGARNIRTSERVTLIVD [Y3T], which protein stability index is on record?
Its protein stability index is 2.22.

For FVKENAKEGARNIRTSERVTLIVD [Y3K], which protein stability index is on record?
The protein stability index was 2.08.

Which protein stability index does the source give for FVYENAKEGIRNIRTSERVTLIVD [A10I] here?
The protein stability index was 2.

Which protein stability index does the source give for FVYENAKEGERNIRTSERVTLIVD [A10E] here?
The protein stability index was 2.79.
